Results from patent US20220226473A1, “Nucleic acid nanocarrier drug and preparation method thereof, pharmaceutical composition and application thereof” (BAI YAO ZHI DA (BEIJING) NANOBIO TECHNOLOGY CO., LTD., priority 2018, published 2022).
Substitutions are numbered along the chain they refer to. {Biotin} = biotin (Bio) of the a-strand; {Bio} = biotin of the strand

B1: D-9: extension fragment deformation+core short-sequence DNA nanoparticle, SEQ ID NO: 144-146, 3′ biotin (nucleic acid)
chain 1: GCGGCGAGCGGCGAGCAGCGTTCGGGCCGGAGGCCGG
chain 2: CCGGCCTCCGGCCCGTTCGCCGCCAGCCGCC
chain 3: GGCGGCAGGCGGCCATAGCGCTCGCCGCTCGCCGC
modifications: chain 1: DNA, 3' {Bio}, backbone and methylation of C not given here; chain 2: DNA, backbone and methylation of C not given here; chain 3: DNA, backbone and methylation of C not given here; three-strand DNA nanoparticle carrier
B2: D-14: extension fragment deformation+core short-sequence DNA nanoparticle, SEQ ID NO: 159-161, 3′ biotin (nucleic acid)
chain 1: B1 chain 1 with G15C, C16G, C23G, G24C
chain 2: B1 chain 2 with C14G, G15C, C20G
chain 3: B1 chain 3 with G12C, G20C, C21G
modifications: chain 1: DNA, 3' {Biotin}, backbone not given here; chain 2: DNA, backbone not given here; chain 3: DNA, backbone not given here; three-strand DNA nanoparticle carrier
B3: D-10: extension fragment deformation+core short-sequence DNA nanoparticle, SEQ ID NO: 147-149, 3′ biotin (nucleic acid)
chain 1: B1 chain 1 with C16G, C23G
chain 2: B1 chain 2 with G15C
chain 3: B1 chain 3 with G20C
modifications: chain 1: DNA, 3' {Bio}, backbone not given here; chain 2: DNA, backbone not given here; chain 3: DNA, backbone not given here; three-strand DNA nanoparticle carrier
B4: D-13: extension fragment deformation+core short-sequence DNA nanoparticle, SEQ ID NO: 156-158, 3′ biotin (nucleic acid)
chain 1: B1 chain 1 with G15C, C16G, C23G, G24C
chain 2: B1 chain 2 with C14G, G15C
chain 3: B1 chain 3 with G20C, C21G
modifications: chain 1: DNA, 3' {Bio}, backbone not given here; chain 2: DNA, backbone not given here; chain 3: DNA, backbone not given here; three-strand DNA nanoparticle carrier
B5: D-11: extension fragment deformation+core short-sequence DNA nanoparticle, SEQ ID NO: 150-152, 3′ biotin (nucleic acid)
chain 1: B1 chain 1
chain 2: B1 chain 2 with C20G
chain 3: B1 chain 3 with G12C
modifications: chain 1: DNA, 3' {Bio}, backbone not given here; chain 2: DNA, backbone not given here; chain 3: DNA, backbone not given here; three-strand DNA nanoparticle carrier
B6: D-12: extension fragment deformation+core short-sequence DNA nanoparticle, SEQ ID NO: 153-155, 3′ biotin (nucleic acid)
chain 1: B1 chain 1
chain 2: B1 chain 2 with C20G, G22C
chain 3: B1 chain 3 with C10G, G12C
modifications: chain 1: DNA, 3' {Biotin}, backbone not given here; chain 2: DNA, backbone not given here; chain 3: DNA, backbone not given here; three-strand DNA nanoparticle carrier

What was measured:
[1] = Electric potential (zeta potential) measurement of self-assembly products; type: physicochemical; conditions: result over 3 detections, at 25 DEG C.
Experimental: Measurement method: preparing a potential sample (the self-assembly product is dissolved in ultrapure water) and putting into a sample pool, opening a sample pool cover of an instrument, and placing the instrument;
opening software, clicking a menu MeasUre€ManUal, so a manual measurement parameter setting dialog box appears;
setting a software detection parameter;
and then clicking Ok to complete the settings, after a measurement dialog box appears, clicking start to start.
and then clicking Ok to complete the settings, after a measurement dialog box appears, clicking Start to start.
Measurement method: preparing a potential sample (the self-assembly product is dissolved in ultrapure water) and putting into a sample pool, opening a sample pool cover of an instrument, and placing the instrument:
Measurement result potential detection results of the 7 groups of the extension fragment deformation+core short-sequence RNA nanoparticles at 25 DEG C. are as follows:
setting a software detection parameter; and then
clicking Ok to complete the settings, after a measurement dialog box appears, clicking Start to start.
Measurement result potential detection results of the 7 groups of the extension fragment deformation+core short-sequence DNA nanoparticles at 25 DEG C. are as follows: […]

[2] = Particle size measurement (DLS hydrodynamic size); type: physicochemical; conditions: DLS hydrodynamic size
Excerpt: 1. Preparing a potential sample (conventional-sequence DNA self-assembly product D-7) and putting into a sample pool, opening a sample pool cover of an instrument, and placing the instrument;
2. opening software, and clicking a menu, so a manual measurement parameter setting dialog box appears;
3. setting a software detection parameter; and then
4. clicking Ok to complete the settings, when a measurement dialog box appears, clicking Start to start, a DLS measurement value result of a hydrodynamic size of the self-assembly product D-7 is shown below in Table 40: […]

[3] = TM value detection by solubility curve method (SYBR Green I); type: physicochemical; conditions: DNA nanoparticles
Experimental: A solubility curve method is used to detect TM values of the 7 groups of the extension fragment deformation+core short-sequence RNA nanoparticles, and the samples are consistent with the potential samples.
(1) After the sample is diluted with ultrapure water, 5 μg of the diluted sample is mixed with 2 μL of SYBR Green I dye (diluted by 1:200), a final volume is 20 μL, and the dilution concentration is as follows:
(2) It is incubated for 30 min in the dark at a room temperature; and
(3) On-machine detection is performed, a program is set to start at 20 DEG C., the temperature rises per second from 0.1 DEG C. to 95 DEG C., and reading is performed every 5 s.
Due to the particularity of the RNA samples, a temperature corresponding to ½ RFUmax in a range of 20 to 90 DEG C. is used as a sample Tm value in this test.
A solubility curve method is used to detect TM values of the 7 groups of the extension fragment deformation+core short-sequence DNA nanoparticles, and the samples are consistent with the potential samples.
(1) After the sample is diluted with ultrapure water, 5 μg of the diluted sample is mixed with 2 μL of SYBR Green I dye (diluted by 1:200). a final volume is 20 μL, and the dilution concentration is as follows: […]

[4] = Drug loading rate of nucleic acid nanoparticles (chemical loading, absorbance standard curve); type: physicochemical; design: unit not given here; conditions: for doxorubicin loading rate: chemical loading method of Embodiment 5; for daunorubicin loading rate: absorbance at 492 nm
Excerpt: According to the chemical loading method (unless otherwise specified, the method is the same as that of Embodiment 5) of Embodiment 5, the RNA nanoparticles formed by the self-assembly of the previous R-15, R-16, R-17, R-18, R-19, R-20 and R-21 in Embodiment 9, and the DNA nanoparticles formed by the self-assembly of the D-8, D-9, D-10, D-11, D-12, D-13 and D-14 in Embodiment 10 are respectively used as doxorubicin loading carriers, doxorubicin loading rates measured are respectively as follows:
According to the chemical loading method (unless otherwise specified, the method is the same as that of Embodiment 5) of Embodiment 5, the DNA nanoparticles formed by the self-assembly of the previous D-10 and D-14 in Embodiment 10 are used as a daunorubicin loading carrier.
According to a chemical loading method of Embodiment 5 (unless otherwise specified, the method is the same as that of Embodiment 5, the same molar number of the epirubicin is used as a loading amount), nucleic acid nanoparticles (a molecular weight is 29550, it is similar to the RNA nanoparticles in Embodiment 1, and a difference is that a fluorescent label on a c-strand is Cy5) are used as a carrier, and respectively loaded with: epirubicin, methotrexate, pirarubicin, daunorubicin, […], 10-hydroxycamptothecin, aspirin and gemcitabine.
Herein, when a standard curve is drawn, the absorbance of the above drugs on the microplate reader is measured respectively. The absorbance of the epirubicin, methotrexate, pirarubicin, daunorubicin, […], 10-hydroxycamptothecin, aspirin and gemcitabine is respectively detected at the following wavelengths: 492 nm, 303 nm, 492 nm, 492 nm, 265 nm, 384 nm, 225 nm and 268 nm. The standard curves obtained correspondingly are respectively shown in FIG. 48a, FIG. 49, FIG. 50sa, FIG. 51, FIG. 52, FIG. 53, FIG. 54a and FIG. 55. […]

HepG2 cells [5] = experiment: Cell binding of DNA nanoparticles and carrier drugs by FACS; type: cell-based; conditions: incubated at 37 DEG C. for 2 h, flow cytometry
Experimental: 1. A cell state is adjusted to a logarithmic growth phase, the medium is changed into a medium without biotin and folic acid, and it is incubated overnight in an incubator at 37 DEG C.
2. After incubation, cell suspension is trypsinized and collected, and centrifuged at 1000 rpm for 5 min, after the concentration is adjusted, a 2×10^6-5×10^6 cell/EP tube is taken and washed twice with 1 mL/tube of 1% BSA-PBS, and cells at the bottom of the tube is observed to prevent them from being absorbed.
3. A substance to be tested is dissolved, and the substance to be tested is diluted to a use concentration.
4. Cell supernatant is absorbed, 100 μL of a corresponding sample is added to each tube in order, light is avoided, and it is incubated at 37 DEG C. for 2 h.
5. It is washed twice with 1% BSA-PBS; and centrifuged at 1000 rpm for 5 min.
6. Finally, it is precipitated with 300 μL of PBS cell resuspension, and flow Cytometric on-machine detection (the blank carrier used in the present embodiment is labeled by Quasar670, and the doxorubicin in the carrier drug has its own fluorescence, so the detection may be performed through FL4-APC and FL2-PE respectively) is performed.

HepG2 cells [6] = experiment: CCK8 toxicity of DNA nanoparticles and carrier drugs; type: cell-based; conditions: HepG2, CCK8, 72 hours
Experimental: A CCK8 method is used to detect the toxicity of DNA nanoparticles and carrier drugs to HepG2.
2. A sample to be tested is diluted according to the following table and added: the original culture medium is removed and 100 μL of a culture medium of the sample to be tested with the different concentration is added, and there are 3 replicate wells in each group.
In the present embodiment, the loaded drug and the blank carrier are firstly prepared into 100 μM of stock solution using the PBS, and then diluted with the complete culture medium (biotin-free DMEM). The original drug doxorubicin is firstly prepared into 100 NM of stock solution by using the DMSO, and then diluted with the complete culture medium (biotin-free DMEM). The DMSO is directly diluted with the complete medium (biotin-free DMEM).
3. After the sample to be tested is added, the 96-well plate is placed in an incubator under 37 DEG C. and 5% CO2 and incubated for 72 hours.
4. A kit is taken out and melted at a room temperature, 10 μL of CCK-8 solution is added to each wall, or the CCK8 solution is nixed with the culture medium at a ratio of 1:9, and then added to the well in an amount of 100 μL/well.
5. It is continuously incubated in the cell incubator for 4 hours, and a length of time depends on experimental conditions such as a cell type and a el density.
6. A microplate reader is used to measure an absorbance at 450 nm.
7. Calculation: cell viability (%)=(OD experimental group−OD blank group)[…]/(OD control group−OD blank group), IC50 is calculated by GraphPad Prism 5.0.

| Molecule | Potential ZP, Experiment result [1] | Mean particle size (nm) [2] | TM value (° C.) [3] | doxorubicin loading rate [4] | Positive rate (HepG2 cells [5]; HepG2, 1 μM) | Positive rate (HepG2 cells [5]; HepG2, 2 μM) | IC50 (HepG2 cells [6]) | daunorubicin loading rate [4] |
| --- | --- | --- | --- | --- | --- | --- | --- | --- |
| B1 | −35.07 mV | 7.920 nm | 52.5 °C | 27.9 | 96.7% | 98.1% | > 1 µM |  |
| B2 | −28.73 mV | 6.896 nm | 49.2 °C | 32 | 97.4% | 98.3% | > 1 µM | 25.1 |
| B3 | −25.77 mV | 7.220 nm | 54.5~55.0 °C | 18.9 | 97.9% | 98.3% | > 1 µM | 24.0 |
| B4 | −27.00 mV | 7.012 nm | 51.0 °C | 31.8 | 97.6% | 98.2% | > 1 µM |  |
| B5 | −27.43 mV | 7.472 nm | 48.7 °C | 26.8 | 97.7% | 97.8% | > 1 µM |  |
| B6 | −32.50 mV | 6.968 nm | 51.5 °C | 27.6 | 96.9% | 97.1% | > 1 µM |  |
